The target of assay [1] is T1, 4H3427-AA.
T1 chain: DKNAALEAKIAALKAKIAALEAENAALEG
As to the kind of experiment: two-hybrid library CCmax.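 Also: natural log of median RNA to DNA barcode read ratio; higher means stronger binding.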 The note with it: mean of both orientations.

Assay [2] addresses T2, 4H3782-AA.
T2 chain: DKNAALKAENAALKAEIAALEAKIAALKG
In words: two-hybrid library CCmax.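 Also: natural log of median RNA to DNA barcode read ratio; higher means stronger binding.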 The note with it: mean of both orientations.

The target in assay [3] is T3, 4H3921-AA.
T3 chain: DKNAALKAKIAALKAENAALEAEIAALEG
In words: two-hybrid library CCmax.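 Also: natural log of median RNA to DNA barcode read ratio; higher means stronger binding.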 The note with it: mean of both orientations.

Assay [4] addresses T4, 4H918-AA.
T4 chain: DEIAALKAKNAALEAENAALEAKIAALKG
In words: two-hybrid library CCmax.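 Also: natural log of median RNA to DNA barcode read ratio; higher means stronger binding.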 As to conditions: mean of both orientations.

Assay [5] deals with T5, 4H906-AA.
T5 chain: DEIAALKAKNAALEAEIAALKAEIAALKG
In words: two-hybrid library CCmax.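 Also: natural log of median RNA to DNA barcode read ratio; higher means stronger binding.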 The note with it: mean of both orientations.

The target in assay [6] is T6, 4H953-AA.
T6 chain: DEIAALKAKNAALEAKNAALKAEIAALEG
As to the kind of experiment: two-hybrid library CCmax.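 Also: natural log of median RNA to DNA barcode read ratio; higher means stronger binding.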 The note with it: mean of both orientations.

Assay [7] addresses T7, 4H4001-AA.
T7 chain: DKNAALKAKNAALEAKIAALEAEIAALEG
As to the kind of experiment: two-hybrid library CCmax. As to conditions: mean of both orientations.

In assay [8] the target is T8, 4H3844-AA.
T8 chain: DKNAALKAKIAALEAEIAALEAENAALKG
As to the kind of experiment: two-hybrid library CCmax. The note with it: mean of both orientations.

Assay [9] has as its target T9, 4H794-AA.
T9 chain: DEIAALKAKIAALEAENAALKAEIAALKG
In words: two-hybrid library CCmax. The note with it: mean of both orientations.

Assay [10] deals with T10, 4H780-AA.
T10 chain: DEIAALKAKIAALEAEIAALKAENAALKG
As to the kind of experiment: two-hybrid library CCmax. The note with it: mean of both orientations.

For assay [11], the target named is T11, 4H566-AA.
T11 chain: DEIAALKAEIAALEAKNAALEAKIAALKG
As to the kind of experiment: two-hybrid library CCmax. As to conditions: mean of both orientations.

For assay [12], the target named is T12, 4H797-AA.
T12 chain: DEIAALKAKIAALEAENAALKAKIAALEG
As to the kind of experiment: two-hybrid library CCmax. The note with it: mean of both orientations.

In assay [13] the target is T13, 4H3354-AA.
T13 chain: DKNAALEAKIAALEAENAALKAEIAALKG
As to the kind of experiment: two-hybrid library CCmax. As to conditions: mean of both orientations.

Assay [14] addresses T14, 4H568-AA.
T14 chain: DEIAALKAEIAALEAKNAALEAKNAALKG
In words: two-hybrid library CCmax. As to conditions: mean of both orientations.

The target in assay [15] is T15, 4H342-AA.
T15 chain: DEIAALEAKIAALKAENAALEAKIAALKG
As to the kind of experiment: two-hybrid library CCmax. The note with it: mean of both orientations.

Assay [16] has as its target T16, 4H3627-AA.
T16 chain: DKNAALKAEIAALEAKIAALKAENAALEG
As to the kind of experiment: two-hybrid library CCmax. The note with it: mean of both orientations.

The target of assay [17] is T17, 4H678-AA.
T17 chain: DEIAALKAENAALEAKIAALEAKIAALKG
As to the kind of experiment: two-hybrid library CCmax. The note with it: mean of both orientations.

The target in assay [18] is T18, 4H967-AA.
T18 chain: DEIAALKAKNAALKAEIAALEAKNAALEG
In words: two-hybrid library CCmax. The note with it: mean of both orientations.

Assay [19] deals with T19, 4H993-AA.
T19 chain: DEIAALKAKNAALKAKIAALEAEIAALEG
As to the kind of experiment: two-hybrid library CCmax. The note with it: mean of both orientations.

Assay [20] deals with T20, 4H3606-AA.
T20 chain: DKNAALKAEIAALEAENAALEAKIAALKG
As to the kind of experiment: two-hybrid library CCmax. As to conditions: mean of both orientations.

In assay [21] the target is T21, 4H48-AA.
T21 chain: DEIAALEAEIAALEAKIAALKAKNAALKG
In words: two-hybrid library CCmax. The note with it: mean of both orientations.

Assay [22] has as its target T22, 4H687-AA.
T22 chain: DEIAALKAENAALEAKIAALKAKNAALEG
As to the kind of experiment: two-hybrid library CCmax. The note with it: mean of both orientations.

Assay [23] has as its target T23, 4H3112-AA.
T23 chain: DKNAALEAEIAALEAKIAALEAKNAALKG
In words: two-hybrid library CCmax.

Assay [24] concerns the target T24, 4H3855-AA.
T24 chain: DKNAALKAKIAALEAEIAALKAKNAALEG
As to the kind of experiment: two-hybrid library CCmax. The note with it: mean of both orientations.

Assay [25] concerns the target T25, 4H3655-AA.
T25 chain: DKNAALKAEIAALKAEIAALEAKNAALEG
As to the kind of experiment: two-hybrid library CCmax. The note with it: mean of both orientations.

Assay [26] addresses T26, 4H3343-AA.
T26 chain: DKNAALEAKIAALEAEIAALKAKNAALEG
In words: two-hybrid library CCmax. As to conditions: mean of both orientations.

Assay [27] deals with T27, 4H717-AA.
T27 chain: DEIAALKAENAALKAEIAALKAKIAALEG
As to the kind of experiment: two-hybrid library CCmax. The note with it: mean of both orientations.

The target of assay [28] is T28, 4H429-AA.
T28 chain: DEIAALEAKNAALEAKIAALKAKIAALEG
As to the kind of experiment: two-hybrid library CCmax. As to conditions: mean of both orientations.

Assay [29] deals with T29, 4H605-AA.
T29 chain: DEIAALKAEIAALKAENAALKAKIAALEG
As to the kind of experiment: two-hybrid library CCmax. As to conditions: mean of both orientations.

Assay [30] addresses T30, 4H881-AA.
T30 chain: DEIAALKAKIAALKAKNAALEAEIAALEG
As to the kind of experiment: two-hybrid library CCmax. The note with it: mean of both orientations.

In assay [31] the target is T31, 4H317-AA.
T31 chain: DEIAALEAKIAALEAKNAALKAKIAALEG
In words: two-hybrid library CCmax. As to conditions: mean of both orientations.

Assay [32] deals with T32, 4H883-AA.
T32 chain: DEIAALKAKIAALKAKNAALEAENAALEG
In words: two-hybrid library CCmax. As to conditions: mean of both orientations.

For assay [33], the target named is T33, 4H454-AA.
T33 chain: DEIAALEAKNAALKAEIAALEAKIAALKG
In words: two-hybrid library CCmax. As to conditions: mean of both orientations.

Assay [34] has as its target T34, 4H335-AA.
T34 chain: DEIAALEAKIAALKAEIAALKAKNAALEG
As to the kind of experiment: two-hybrid library CCmax. As to conditions: mean of both orientations.

The target of assay [35] is T35, P7A-bH.
T35 chain: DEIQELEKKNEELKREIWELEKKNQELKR
In words: two-hybrid library CCNG1.

The target in assay [36] is T36, P5A-bH.
T36 chain: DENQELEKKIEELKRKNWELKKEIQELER
In words: two-hybrid library CCNG1.

The target of assay [37] is T37, P6A-bH.
T37 chain: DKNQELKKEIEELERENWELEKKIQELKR
As to the kind of experiment: two-hybrid library CCNG1.

In assay [38] the target is T38, P9A-bH.
T38 chain: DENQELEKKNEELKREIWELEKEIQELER
As to the kind of experiment: two-hybrid library CCNG1.

Assay [39] deals with T39, P8A-bH.
T39 chain: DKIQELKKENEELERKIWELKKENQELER
As to the kind of experiment: two-hybrid library CCNG1.

Assay [40] deals with T40, P4A-bH.
T40 chain: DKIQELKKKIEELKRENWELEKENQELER
In words: two-hybrid library CCNG1.

The target of assay [41] is T41, P3A-bH.
T41 chain: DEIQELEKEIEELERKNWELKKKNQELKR
In words: two-hybrid library CCNG1.

DKNAALEAEIAALEAKIAALEAKNAALKG [4H3112-AA]: the interaction score in [1] was 2.07; in assay [2] it was -0.975; in assay [3], -1.01; in [4] it was -1.44; in assay [5], -1.29; in [6], -1.62. The interaction score in assay [7] is -1.09; in [8], 0.837; in assay [9], -1.51; in [10], -1.01; in [11] it was -1.22; in [12], -1.25. Also, the interaction score is -1.66 in assay [13]; -0.907 in assay [14]; -0.739 in assay [15]; 0.212 in assay [16]; -1.37 in assay [17]; -1.38 in [18]. Further, the interaction score in [19] is -0.58; in [20], -0.965; in [21], 0.163; in [22], -0.855; in assay [23], -0.157; in [24], -0.622. For the same molecule, the interaction score in [25] is -0.414; in assay [26], -1.15; in [27], -1.33; in assay [28], 0.94; in assay [29], -1.38; in [30], -0.621. The interaction score in assay [31] was -1.3; in assay [32] it was 0.194; in assay [33] it was -0.722; in assay [34], 0.64.
Take DEIQELEKENEELERENWELEKEIQELER [P1A-bH]: the interaction score in assay [35] was -0.716; in [36] it was -0.798; in assay [37], -0.616; in [38], -1.36; in assay [39] it was -0.232; in assay [40] it was -0.5. Further, the interaction score in assay [41] is -1.59.

Source of the values: article PMC10397247.
